# Assay: yeast display, Sf9 membrane polyspecificity reagent, FACS + sequencing; frameworks hold sequencing errors
# Outline: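 Nanobodies came from a synthetic yeast display library in Saccharomyces cerevisiae BJ5465, induced with galactose for 36–48 hours and stained for 1 hour at 4 °C with 10% biotinylated, detergent-solubilized Sf9 membrane reagent. Cells were enriched on streptavidin microbeads and then FACS-sorted, with low and high (top ~1%) gates set on anti-HA fluorescence for expression and streptavidin fluorescence for reagent binding. Each polyreactivity label reflects the gate a clone came from. Genes were amplified by colony PCR, sequenced by MiSeq 2 × 250 and filtered by CDR length.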
row,Sequence,polyreactivity (PSR sort gate)
1,QVQLVESGGRLVQPGGSLRLSCAASGRTFVLNAIGWYRQAPGKEREFVAAISWGGVRTDYADSVKGRFTISRDNAKNTVYLQMNSLKPEDTAVYYCATSGSRYRRYDYWGQGTQVTVSS,high polyreactivity
2,QVQLVESGGRLVQSGGSLRLICAASGQIFQWYAMGWYRQAPGKETELVAAISSGDSTYYADSVTGRFTISRDNAKNTVYLDMNSLKPEDTAVDYCNARAIGWRIYDYWGQGTEVTVSS,high polyreactivity
3,QVQLVESGGRLVQSGGSLRLSCAASGRTIVENAMGLYRQAPGKEREFVAAISYKGGSTYYADSVKGRFTISRDNAKNTVYFQMNSLNPEDTAVYYCAADPNYGYDYWGQGTQVTVST,low polyreactivity
4,QVQLVESGGSLVQAGGSLRLSCAASGSIFFYYAMGWYRQAPGKERELVAAISWSGGSTYYADSVKGRFTISRDNAKNTVYLQMNSLKPEDTAVYYCAADRPYAGRYWKGYHSALYDYWGQGTQVTVSS,low polyreactivity
5,QVQLVESGGSLVQAGGSLRLSCAASGSTFDYYAMGWYRQAPGKARELHAAIDWSGDSTYYADSVKGRFTISRDNAKNTVYLQMNSLKREDSAVYYCPADLDSRGTYGRYEYWGQGTQVTVSS,low polyreactivity
6,QVQLVESGGSLVQAGGSLRVSCAASRSIFEHYAMGWYRQAHGKERELVATISSASRTHYADSVKGRFTISRDNAKNTVYLQRNSLKREDTAVYYCAARLYYVWYAPYYYWGQGTQVSVSS,high polyreactivity
7,QVQLVESGGSLVQEGGSLRLSCAASGRTYNVMGWDRQAPGKERELVAAITWGGGSTHYADSVKGRFTISRDNAKNTVYVQMNSLKPEDTAVYYCAADLLYKSTRVDYWGQGTQVTVSS,low polyreactivity
8,QVQLVESGGVFDQARGSLRLSCAASGSIFAIYAMGWYRQAPGKERELVAAISRSGGRTYYADSVKGRFTISRDNAKNTVYLQMNSLKPEDTAVYYCAAQGVSSGFRYRGGYWGQGTQVTVSS,high polyreactivity
9,QVQLVESGGVLFQAGGSLRLSCAAAGFTFKYNAMGWYRQAPGKERELVASITSGATNYADSVKGRFTIARDNAKNTVSLQLTTLKPEETAVYDCAVVDVHYTRAKVGYAYGAYDYWGQCTQVTVSS,low polyreactivity
10,QVQLVESGGVLLQAGGSLRLSCAASGSIFYPYAMGWYRQAPGKERELFAAITYIDADTYYADSVKGRFTISRDNAKNTVYLQMNSLKPEDTAVYYCAAEIPVYQGTGEDDYWGQGTQVTVSS,low polyreactivity
11,QVQLVESGGVLVKAGGSLRLSCAASGRIFGYYAMGWYIQAPGKERELFAAITYSSGRTYYADSVKGRFTISRDNAKNTFYLQMNSLKPEDTAVYYCAARYHYYLSPATYYYWGQGTQVTVSS,high polyreactivity
12,QVQLVESGGVLVQAGCSIRLSCSASGLTFIQYAMGWYRQAPGKERELVAAINSGASTRYADSVKGRFTISRDNAKNTVYLQMNSLKPEDTAVYYCNARLRRYTNRYYKYYYWGQGTQVNVSS,high polyreactivity
13,QVQLVESGGVLVQAGGRLRISCAASGSTFVRNAMGWYRQAPGKEMELVAAISFSGGSTYYADSVKGRFTISRDTAKNTVYLQMNSLKPEDTAVYYCAKKTRYRSRGMNYWGQATQVTVSS,high polyreactivity
14,QVQLVESGGVLVQAGGRLRLSCAASGLTFNENVMGWYRQAPGKERELVAAISTGASTYYADSVKGRFTISRDNAKNTVYLQMNSLKPEDTAVYYCAKRVNRWYGYWGQGTQVTVSS,high polyreactivity
15,QVQLVESGGVLVQAGGSLPLSCAASGRILARNAMGWYRQAPGNERELVAAITSSTDSTYYADSVKGRFTISRDNAKNTVYLQMNSLKPEDTAVYYCATVVRLYRGRYSYDYWGQGTQVTVSS,high polyreactivity
16,QVQLVESGGVLVQAGGSLRLICAASVRNFSTNSMGWYRQAPGKERELVASISFRGGRTYYADSVKGRFTISRDNAKNTVYLQMNSRKPEDNAVYYCVSGTKRTGYGYWGQGTQVTVSS,high polyreactivity
17,QVQLVESGGVLVQAGGSLRLRCAASVRNYNSYMGWYRPAPGKERELVAAISWSSGTSTYYADSVKGRFTISRDNAKNTVYLQMNSLKPEDTEVYYCNAVDYFGPYPEEYDYWGQGTQVTVSS,low polyreactivity
18,QVQLVESGGVLVQAGGSLRLSCAAMGWYRQAPGKERELVATITWSGGSTYYADSVKGRFTISRDNAKNTVYLQMNSLKPEDTAVYYCNSRATLLSPANTIRGYDYWGQGTQVTVSS,low polyreactivity
19,QVQLVESGGVLVQAGGSLRLSCAASGRIFDIYAMGWYRQAPGKERELVAGITWRAGSTYYADSVKGRFTISRDNAKNTVYLQMNSLKPEDSAVYFCARDYSRHKGDYWGQGTQVTVSS,low polyreactivity
20,QVQLVESGGVLVQAGGSLRLSCAASGRIFLEYAMGWYRQAPGKERELVAAISRGGGRTYYADSVKGRFTISRDNAKNTVYLLMNSLKPEDTAVYYCAAGLAKGYWASFAYRYDYWGQGTQVTVSS,high polyreactivity
21,QVQLVESGGVLVQAGGSLRLSCAASGRIFWGYAMGWYRQAPGKERELVARLTSGGDTYYADSVKGRFTISRDNAKNTVDLQMNSLKPEDTAVYYCAKSTAVKPYAYRESGFIYDYRGQGTQVTVSS,low polyreactivity
22,QVQLVESGGVLVQAGGSLRLSCAASGRTFDSYAMGWYRQAPGKERELVAAISSRGTRTYYADSVKWRFTISRDNAKNTVYLQMNSLKPEDTAVYYCNAGGAYEYDYWGQGTQVTVSS,high polyreactivity

row,Sequence,polyreactivity (PSR sort gate)
1,QVQLVESGGVLVQAGGSLRLSCAASGRTFYGYSMGWYRQAAGKEREFVSDITYSGGRTYYADSVKGRFTISRDNAKNTVYLQMYSLKPEDTAVYYCNAYYYYVNQGRYEYGYWGQGTQVTVSS,high polyreactivity
2,QVQLVESGGVLVQAGGSLRLSCAASGRTFYYYAMGWYRQAPGKEREFVAVISGSGANTFYADSVKGRFTISRDNAKNTVYLQMNSLKPEDTAVYYCAARSWEGYGYWGQGTQVTVSS,high polyreactivity
3,QVQLVESGGVLVQAGGSLRLSCAASGRTLFHYAMGWDRQAPGKERELVAAIRNSDGSTYYADSVKGRFTISRDNAKNTVYLQMNSLKPEDTAVYYCAAKYKYRTNNYWGQGTQVTVSS,high polyreactivity
4,QVQLVESGGVLVQAGGSLRLSCAASGSIFGYNVMGRYRQAPGKERELVAAITYSGGSTYYADSVKGRFTISRDNAKNTVYLQMNSLKPEDTAVYYCAKVTGRRFPAYGYDHWGQGTQLTVSS,high polyreactivity
5,QVQLVESGGVLVQAGGSLRLSCAASGSIFYYNAMGWYRQAPGKERELVATITGGNGTYYADSVKGRFTISRDNAKNTVYLQMNSLKPEVTAVYYCARDTDPQSSRSSDYDYWGQGTQVTVSS,low polyreactivity
6,QVQLVESGGVLVQAGGSLRLSCAASGSILHDYAMGWYRQAPGKERELVASINWSGGRTYYADSVKGRFTISRDNAKNTVYLQRNRLTPEDTAVYYCSADPSWLHVSHAPTFGLDYWGQGSQVTVSS,high polyreactivity
7,QVQLVESGGVLVQAGGSLRLSCAASGSIYRYYAMGWYRQAPGKERELVAAISWRGGSTYYADSVKGRFTISRDNAKNPVYLQMNSLKPEDTAVYYCAAELWVGTYGEYDYWGQGTQVTVSS,low polyreactivity
8,QVQLVESGGVLVQAGGSLRLSCAASGSTFLWYAMGWYRQAPGKEREMVAAISRSGGNTYYADSVKGRFTISRDNAKTSVYLEMNSLNPEDTAVYDCAARKLYGSPEHGYGGQGTQVTVSS,high polyreactivity
9,QVQLVESGGVLVQAGGSLRLSCAASGSTFNSYVMGWYRQAPGKEREFVAAISWSGVRTYYADSVKGRFTISRDNAKNTVYLQMNSLKPEDTAVYYCAVRSGRRNYVRPAFGYWGQGTQVTVSS,high polyreactivity
10,QVQLVESGGVLVQAGGSLRLSCAASGSTFVYNAMGWYRQAPGKESEFVAAISGSGGSTYYADSVKGRFTISRDIAKNTVYLQMNSLKPDDTAVYYCATAGRYGRYRTYPYRSKYDYWGQGTQVTVSS,high polyreactivity
11,QVQLVESGGVLVQAGGSLRLSCAATGYIFHLYGMGWYRQAPGKERELVARITYRRGSTYYADSVKGRFTISRDNAKNTVYLQMNSLKPEDTAVYYCAKRRGYGYNYWGQGTQVTVSS,high polyreactivity
12,QVQLVESGGVLVQAGGSLRLSCADSGRTFYTNAMGWYRQAPGKERELVAAITGSDGNTYYADSVKGRFTISRENAKNTVYLQMISLKAEDTAVYYGFDYWVQGTQVTVSS,low polyreactivity
13,QVQLVESGGVLVQAGGSLRLSCADSGSIFILYAMGWYRHAPGKESEFVAAITYRGGSTKYADSVKGRFTISRDNAKNTVYLQMNRLKPEDTAVYYCAAGGYWRSPCGSVSRYGYWGQGTQVTVSS,high polyreactivity
14,QVQLVESGGVLVQAGGSLRLSSAASGRTFFRYTMGWYRQAPGKERELVAAISRSDGTTYYADSVKGRFTISRDSAKNTVYLEMNSLKPEDTAVYYCAKSLPSGYYYWGQGTQVTVSS,low polyreactivity
15,QVQLVESGGVLVQAGGSLRLTCAASGRTFGHYAMGWYRQAPGKERELVAANTSSAGRTRYADSVKGRFTISRDYAKNTVYLQMNSLKPEDTAVYYCAVAEGYSPAYLRDYWGQGTQVTVSS,high polyreactivity
16,QVQLVESGGVLVQAGGSLRLTCAASGSILYLNAMGWYRQAPGKERELVAAITWSGGSTSYADSVKGRFTISRDNAKYTVSLQMNSLKPEDTAVYYCASGRRGYGGVYYAGGYWGQGTQVTVSS,low polyreactivity
17,QVQLVESGGVLVQAGGTLRFSCAPSGLTFVYYTMRWYRQAPGQEREFVAGIDWSGGSTYYADSVKGRFTISRDNAKNTVYLHMNSLKPEDTAVYYCAAAVYYQYCVYRHDYWGKGTQVTVSS,low polyreactivity
18,QVQLVESGGVLVQDGGSLRLSCAASGRIFGHYAMGWYRQAPGKERELVAAISWSGGSTYYADSVKARFTISRDNAKNTVYLQMKSLKPEDTAVYDCNTGRVRYQGVRYDYWGQGTQVTVSS,high polyreactivity
19,QVQLVESGGVLVQEGGSLRLICAASGSIFGYYVMGWYRQAPGKERELVAAISRSGGSTYYADSVKGLFTISRDNAKTTVYLQMNSLKQEDTAVYYCAASFAVRYPRLDYWGQGTQVTVSS,high polyreactivity
20,QVQLVESGGVLVQEGGSLRLSCDASGSIFECYAMGWYRQAPGKARELVAYITYNGGSTYYADSVKGRFTISRHNAKKTVYLQMNSLKPEDSAVYYCAAVYFVQVPDYYYASEYGYWGQGTQVTVSS,low polyreactivity
21,QVQLVESGLGLVQAAGSLRLSCAASGSILYSYAMGWYRQAPGKERELFAAITGAGASTNYADSVKGRFTISRDNGKNTVYLQMNSLKPEDTAVYYCNAEYNPYHYYKAWVYTYDYGYWGQGTQVTVSS,low polyreactivity
